Data as given in patent publication US20050054833A1 (published 2005).
Where a chain is given by its changes, count along the chain named. One block for each binder: values may come before it.

Key:
p5E8G1 = test: apparent Kd
p5E8G1N- = test: apparent Kd
human CD23 [1] = biological target: T1, human CD23 (human, UniProt P06734 1-321); test: apparent Kd
T1 chain: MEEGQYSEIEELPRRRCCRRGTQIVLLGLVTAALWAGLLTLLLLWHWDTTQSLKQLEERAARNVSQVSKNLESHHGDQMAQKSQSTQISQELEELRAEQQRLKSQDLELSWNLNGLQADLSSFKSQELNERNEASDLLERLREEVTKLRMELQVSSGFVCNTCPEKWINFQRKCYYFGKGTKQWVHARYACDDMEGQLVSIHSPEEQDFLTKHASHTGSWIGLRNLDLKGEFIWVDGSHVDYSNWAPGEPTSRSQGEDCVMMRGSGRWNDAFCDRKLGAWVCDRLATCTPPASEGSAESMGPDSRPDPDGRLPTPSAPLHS

human CD23 [2] = biological target: T1, human CD23; test: apparent Kd; replicate 2
human CD23 [3] = biological target: T1, human CD23; test: apparent Kd; replicate 4
human CD23 [4] = biological target: T1, human CD23; test: apparent Kd; replicate 1
human CD23 [5] = biological target: T1, human CD23; test: apparent Kd; replicate 3

Kd (human CD23 [1]): 0.3 nM
B2: PRIMATIZED antibody p5E8G4PN- (antibody, V domains shown)
VH: EVQLVESGGGLAKPGGSLRLSCAASGFRFTFNNYYMDWVRQAPGQGLEWVSRISSSGDPTWYADSVKGRFTISRENAKNTLFLQMNSLRAEDTAVYYCASLTTGSDSWGQGVLVTVSS
VL: DIQMTQSPSSLSASVGDRVTITCRASQDIRYYLNWYQQKPGKAPKLLIYVASSLQSGVPSRFSGSGSGTEFTLTVSSLQPEDFATYYCLQVYSTPRTFGQGTKVEIK

Kd (human CD23 [2]): 1.5 nM | Kd (human CD23 [3]): 4.4 nM | Kd (human CD23 [4]): 0.5 nM | Kd (human CD23 [5]): 1.8 nM
B3: primate anti-human CD23 monoclonal antibody 5E8 (antibody, V domains shown)
VH: B2 VH with K78N
VL: B2 VL
modifications: N-linked oligosaccharide at the asparagine of the heavy chain variable region glycosylation site (Kabat 75)

Continued, binder first:

B1: CD23 (receptor)
chain: T1 chain
Kd (p5E8G1): 0.7 nM | Kd (p5E8G1N-): 0.7 nM

B4: PRIMATIZED antibody p5E8G4P (antibody, V domains shown)
VH: B2 VH with K78N
VL: B2 VL
modifications: N-linked oligosaccharide at the asparagine of the heavy chain variable region glycosylation site (Kabat 75)
Kd (human CD23 [2]): 1 nM | Kd (human CD23 [4]): 0.3 nM
